T1: GST-Cyn monkey-stalk fusion protein (Schistosoma japonica; cynomolgus monkey)
T1 construct: also called D6 cyno; Cyno; not shown: GST (Schistosoma japonicum, from pGEX-2TK) and its linker before the GS
T1 chain: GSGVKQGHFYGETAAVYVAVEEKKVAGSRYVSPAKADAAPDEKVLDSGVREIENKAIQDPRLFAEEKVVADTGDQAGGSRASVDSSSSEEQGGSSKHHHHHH

T2: GST-Rat-stalk fusion protein (Schistosoma japonica; rat, UniProt P15083 535-643)
T2 construct: domain: stalk; About 39.3 kD, no 6xHis tag; also called [GST]-[rat domain 6] fusion protein; D6 rat; not shown: glutathione-S-transferase from Schistosoma japonica, from vector pGEX-2TK
T2 sequence (looked up): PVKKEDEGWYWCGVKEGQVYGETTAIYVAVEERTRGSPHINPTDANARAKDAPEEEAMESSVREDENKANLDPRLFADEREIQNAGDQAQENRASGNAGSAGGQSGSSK

B1: single chain antibody sFv5AF (scFv)
scFv: DYKAKQVQLVQSGGGVVQPGRSLRLSCAASGFTFSSYAMHWVRQAPGKGLEWVSAISGSGGSTYYADSVKGRFTISRDNAKNSLYLQMNSLRAEDTAVYYCARDTRGYFDLWGRGTLVTVSSGGGGSGGGGSGGGGSSELTQDPAMSVALGQTVRITCQGDSLRKYHASWYQQRPRQAPRLVVYGKNERPSGIPERFSGSTSGDTASLTISGLQAEDEADYYCHSRDSNADLVVFGGGTKVTVLGAAAEQKLISEEDLNGAAHHHHHH
B2: single chain antibody sFv5A (scFv)
scFv: QVQLQQSGGGVVQPGRSLRLSCAASGFTFSSYAMHWVRQAPGKGLEWVSAISGSGGSTYYADSVKGRFTISRDNAKNSLYLQMNSLRAEDTAVYYCARDTRGYFDLWGRGTLVTVSSGGGGSGGGGSGGGGSSELTQDPAMSVALGQTVRITCQGDSLRKYHASWYQQRPRQAPRLVVYGKNERPSGIPERFSGSTSGDTASLTISGLQAEDEADYYCHSRDSNADLVVFGGGTKVTVLGAAAEQKLISEEDLNGAAHHHHHH
B3: sFv5AF-Cys (starting material, mixture of monomer and dimer) (scFv)
scFv: DYKAKQVQLVQSGGGVVQPGRSLRLSCAASGFTFSSYAMHWVRQAPGKGLEWVSAISGSGGSTYYADSVKGRFTISRDNAKNSLYLQMNSLRAEDTAVYYCARDTRGYFDLWGRGTLVTVSSGGGGSGGGGSGGGGSSELTQDPAMSVALGQTVRITCQGDSLRKYHASWYQQRPRQAPRLVVYGKNERPSGIPERFSGSTSGDTASLTISGLQAEDEADYYCHSRDSNADLVVFGGGTKVTVLGGGGGSCAAAEQKLISEEDLNGAAHHHHHH
notes: also called s5AF-Cys
B4: [monomer sFv5AF-Cys]-SPDP-[15 kD protein] conjugate with c-myc tag (Az018a) (other)
scFv: DYKAKQVQLVQSGGGVVQPGRSLRLSCAASGFTFSSYAMHWVRQAPGKGLEWVSAISGSGGSTYYADSVKGRFTISRDNAKNSLYLQMNSLRAEDTAVYYCARDTRGYFDLWGRGTLVTVSSGGGGSGGGGSGGGGSSELTQDPAMSVALGQTVRITCQGDSLRKYHASWYQQRPRQAPRLVVYGKNERPSGIPERFSGSTSGDTASLTISGLQAEDEADYYCHSRDSNADLVVFGGGTKVTVLGGGGGSCAAAEQKLISEEDLNGAAHHHHHH
B5: [monomer sFv5AF-Cys]-SPDP-[15 kD protein] conjugate without c-myc tag (Az018b) (other)
scFv: DYKAKQVQLVQSGGGVVQPGRSLRLSCAASGFTFSSYAMHWVRQAPGKGLEWVSAISGSGGSTYYADSVKGRFTISRDNAKNSLYLQMNSLRAEDTAVYYCARDTRGYFDLWGRGTLVTVSSGGGGSGGGGSGGGGSSELTQDPAMSVALGQTVRITCQGDSLRKYHASWYQQRPRQAPRLVVYGKNERPSGIPERFSGSTSGDTASLTISGLQAEDEADYYCHSRDSNADLVVFGGGTKVTVLGGGGGSC
notes: also called Az0018b; not shown: the 15 kD protein (never identified); the exact point where the c-myc/His tail was lost
B6: [dimer sFv5AF-Cys]-SPDP-[15 kD protein] conjugate (Az019) (other)
scFv 1: DYKAKQVQLVQSGGGVVQPGRSLRLSCAASGFTFSSYAMHWVRQAPGKGLEWVSAISGSGGSTYYADSVKGRFTISRDNAKNSLYLQMNSLRAEDTAVYYCARDTRGYFDLWGRGTLVTVSSGGGGSGGGGSGGGGSSELTQDPAMSVALGQTVRITCQGDSLRKYHASWYQQRPRQAPRLVVYGKNERPSGIPERFSGSTSGDTASLTISGLQAEDEADYYCHSRDSNADLVVFGGGTKVTVLGGGGGSCAAAEQKLISEEDLNGAAHHHHHH
scFv 2: DYKAKQVQLVQSGGGVVQPGRSLRLSCAASGFTFSSYAMHWVRQAPGKGLEWVSAISGSGGSTYYADSVKGRFTISRDNAKNSLYLQMNSLRAEDTAVYYCARDTRGYFDLWGRGTLVTVSSGGGGSGGGGSGGGGSSELTQDPAMSVALGQTVRITCQGDSLRKYHASWYQQRPRQAPRLVVYGKNERPSGIPERFSGSTSGDTASLTISGLQAEDEADYYCHSRDSNADLVVFGGGTKVTVLGGGGGSCAAAEQKLISEEDLNGAAHHHHHH
notes: also called AzO19; Az0019
B7: purified monomer sFv5AF-Cys (scFv)
scFv: DYKAKQVQLVQSGGGVVQPGRSLRLSCAASGFTFSSYAMHWVRQAPGKGLEWVSAISGSGGSTYYADSVKGRFTISRDNAKNSLYLQMNSLRAEDTAVYYCARDTRGYFDLWGRGTLVTVSSGGGGSGGGGSGGGGSSELTQDPAMSVALGQTVRITCQGDSLRKYHASWYQQRPRQAPRLVVYGKNERPSGIPERFSGSTSGDTASLTISGLQAEDEADYYCHSRDSNADLVVFGGGTKVTVLGGGGGSCAAAEQKLISEEDLNGAAHHHHHH
notes: also called 5Afcys Monomer; sFv5AF-Cys monomer
B8: purified dimer sFv5AF-Cys (scFv)
scFv: DYKAKQVQLVQSGGGVVQPGRSLRLSCAASGFTFSSYAMHWVRQAPGKGLEWVSAISGSGGSTYYADSVKGRFTISRDNAKNSLYLQMNSLRAEDTAVYYCARDTRGYFDLWGRGTLVTVSSGGGGSGGGGSGGGGSSELTQDPAMSVALGQTVRITCQGDSLRKYHASWYQQRPRQAPRLVVYGKNERPSGIPERFSGSTSGDTASLTISGLQAEDEADYYCHSRDSNADLVVFGGGTKVTVLGGGGGSCAAAEQKLISEEDLNGAAHHHHHH
notes: also called 5Afcys Dimer; sFv5AF-Cys dimer

Key:
[1] = target: pIgR expressed on transfected MDCK cells; assay: cell-based or functional assay
[2] = target: pIgR Domain 6 GST (D6-GST) fusion protein, species not named; assay: SPR (Biacore), 1:1 Langmuir model; ligand not given
[3] = target: T3, GST-Human-stalk fusion protein (Schistosoma japonica; human, UniProt P01833 550-638); assay: SPR (Biacore), D6-GST captured on anti-GST antibody, global fit
T3 construct: domain: stalk; About 37.8 kD; also called D6 human; human pIgR Domain 6 GST (D6-GST) fusion protein; not shown: glutathione-S-transferase from Schistosoma japonica, from vector pGEX-2TK
T3 sequence (P01833 550-638, tags left off): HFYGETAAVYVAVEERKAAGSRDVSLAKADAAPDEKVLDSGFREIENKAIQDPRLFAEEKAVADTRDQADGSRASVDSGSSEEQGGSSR

[4] = target: T1, GST-Cyn monkey-stalk fusion protein; assay: as above
[5] = target: T2, GST-Rat-stalk fusion protein; assay: as above
[6] = target: T3, GST-Human-stalk fusion protein; assay: SPR (Biacore), D6-GST captured on anti-GST antibody, 1:1 Langmuir global fit
[7] = target: T1, GST-Cyn monkey-stalk fusion protein; assay: as above
[8] = target: T2, GST-Rat-stalk fusion protein; assay: as above
[9] = target: T3, GST-Human-stalk fusion protein; assay: SPR (Biacore), D6-GST captured on anti-GST antibody
[10] = target: T1, GST-Cyn monkey-stalk fusion protein; assay: as above
[11] = target: T2, GST-Rat-stalk fusion protein; assay: as above

Binder | Ka [2] | Kd [2] | koff [2] | kon [2] | Ka [3] | Kd [3] | koff [3] | kon [3] | Ka [4] | Kd [4] | koff [4] | kon [4] | Ka [5] | Kd [5] | koff [5] | kon [5] | Ka [6] | Kd [6] | koff [6] | kon [6] | also measured
B1 | 4.47e+06 M⁻¹ | 224 nM | 0.00464 s⁻¹ | 27100 M⁻¹ s⁻¹ |  |  |  |  |  |  |  |  |  |  |  |  |  |  |  |  | percent transcytosis, pIgR expressing MDCK cells, overnight [1]: 2%
B2 | 6.31e+06 M⁻¹ | 158 nM | 0.00464 s⁻¹ | 29300 M⁻¹ s⁻¹ | 2.16e+07 M⁻¹ | 46.3 nM | 0.00337 s⁻¹ | 72900 M⁻¹ s⁻¹ | 1.93e+07 M⁻¹ | 51.8 nM | 0.00397 s⁻¹ | 76700 M⁻¹ s⁻¹ | 2.95e+07 M⁻¹ | 33.9 nM | 0.00262 s⁻¹ | 77300 M⁻¹ s⁻¹ |  |  |  |  | 
B3 | 9.84e+06 M⁻¹ | 102 nM | 0.00464 s⁻¹ | 37600 M⁻¹ s⁻¹ |  |  |  |  |  |  |  |  |  |  |  |  | 6.71e+08 M⁻¹ | 1.49 nM | 0.00145 s⁻¹ | 976000 M⁻¹ s⁻¹ | Ka [7]: 7.7e+08 M⁻¹; Kd [7]: 1.3 nM; koff [7]: 0.00137 s⁻¹; kon [7]: 1.06e+06 M⁻¹ s⁻¹; Ka [8]: 4.36e+08 M⁻¹; Kd [8]: 2.3 nM; koff [8]: 0.00282 s⁻¹; kon [8]: 1.23e+06 M⁻¹ s⁻¹
B4 |  |  |  |  | 9.62e+06 M⁻¹ | 104 nM | 0.00449 s⁻¹ | 43200 M⁻¹ s⁻¹ | 9.69e+06 M⁻¹ | 103 nM | 0.00535 s⁻¹ | 51800 M⁻¹ s⁻¹ | 1.24e+07 M⁻¹ | 80.6 nM | 0.0038 s⁻¹ | 47100 M⁻¹ s⁻¹ |  |  |  |  | 
B5 |  |  |  |  | 9.3e+06 M⁻¹ | 107 nM | 0.00465 s⁻¹ | 43200 M⁻¹ s⁻¹ | 9.5e+06 M⁻¹ | 105 nM | 0.00557 s⁻¹ | 52900 M⁻¹ s⁻¹ | 1.28e+07 M⁻¹ | 77.9 nM | 0.00385 s⁻¹ | 49400 M⁻¹ s⁻¹ |  |  |  |  | 
B6 |  |  |  |  | 1.39e+08 M⁻¹ | 7.18 nM | 0.00109 s⁻¹ | 152000 M⁻¹ s⁻¹ | 1.52e+08 M⁻¹ | 6.57 nM | 0.00108 s⁻¹ | 164000 M⁻¹ s⁻¹ | 1.06e+08 M⁻¹ | 9.39 nM | 0.00196 s⁻¹ | 209000 M⁻¹ s⁻¹ |  |  |  |  | 
B7 |  |  |  |  |  |  |  |  |  |  |  |  |  |  |  |  | 1.77e+08 M⁻¹ | 5.64 nM | 0.00241 s⁻¹ | 428000 M⁻¹ s⁻¹ | Ka [7]: 1.73e+08 M⁻¹; Kd [7]: 5.77 nM; koff [7]: 0.00256 s⁻¹; kon [7]: 443000 M⁻¹ s⁻¹; Ka [8]: 1.77e+08 M⁻¹; Kd [8]: 5.63 nM; koff [8]: 0.00303 s⁻¹; kon [8]: 538000 M⁻¹ s⁻¹
B8 |  |  |  |  |  |  |  |  |  |  |  |  |  |  |  |  | 5.02e+08 M⁻¹ | 1.99 nM | 0.00217 s⁻¹ | 1.09e+06 M⁻¹ s⁻¹ | fold difference in affinity against the purified monomer [9]: ~3 fold; fold difference in affinity against the purified monomer [10]: ~3 fold; fold difference in affinity against the purified monomer [11]: ~3 fold; Ka [7]: 4.61e+08 M⁻¹; Kd [7]: 2.17 nM; koff [7]: 0.00244 s⁻¹; kon [7]: 1.12e+06 M⁻¹ s⁻¹; Ka [8]: 5.01e+08 M⁻¹; Kd [8]: 2 nM; koff [8]: 0.00341 s⁻¹; kon [8]: 1.71e+06 M⁻¹ s⁻¹

— patent publication US20030161809A1 (published 2003)
